Laboratory results taken from patent publication US6274134A, “Human cell adhesion protein AAMP-1 and uses thereof” (National Institutes of Health, priority 1993, dated 2001).

Test: H3-heparin binding assay, recombinant AAMP blotted onto Immobilon-P
Conditions: tritiated heparin 2.5 U/mL
Method: Heparin binding assays utilizing competition of tritiated heparin (heparin sodium salt, [^3 H(G)]-, NEN DuPont), with unlabeled heparin, were performed for recombinant AAMP, solubilized P189 (immobilized on CovaLink™ plates), and for aggregated P189 in 0.1% BSA-DMEM solutions. Recombinant AAMP in bacterial lysate and bovine serum albumin in equal amounts were electrophoresed for gel purification, and blotted onto Immobilon-P™. These blots were incubated 3 hours with tritiated heparin, 2.5 U/mL (10.7 uCi/mL) at room temperature, alone and with increasing amounts of unlabeled heparin (0.125-0.25 U/mL) for competition. Following 3 washes, the bands of AAMP recombinant protein and BSA (triplicates for each heparin concentration) were cut from the blotted Immobilon P strips, placed in scintillation vials, and counted for comparisons. Solubilized P189 (6.25 ug/mL) was immobilized on CovaLink™ plates, as described previously, and incubated one hour at room temperature with tritiated heparin, […] (0.213 uCi/mL), alone and with increasing amounts of unlabeled heparin (50-500 U/mL) for competition. Following three washes, the plate wells, in duplicates or triplicates for each heparin concentration, were placed in scintillation vials and counted. In separate assays, aggregates of P189 (200 ug/mL in 0.1% BSA-DMEM) were incubated one hour on a rocker at room temperature with tritiated heparin (0.05 U/mL) alone and with increasing amounts of unlabeled heparin (0.05-5 U/mL) for competition. Following centrifugation,the precipitate was washed with 0.1% BSA-DMEM, centrifuged again, and then transferred to scintillation vials for counting. The background cpm/umole protein levels for assays with AAMP recombinant protein competed with unlabeled heparin, were standardized to AAMP recombinant protein's average background cpm/umole protein with no labeled heparin present.

B1: Recombinant AAMP: Recombinant human cell adhesion protein AAMP, gel purified from bacterial lysate (SEQ ID NO:7) (protein)
chain: GPEKWIRRLRRMESESESGAAADTPPLETLSFHGDEEIIEVVELDPGPPDPDDLAQEMEDVDFEEEEEEEGNEEGWVLEPQEGVVGSMEGPDDSEVTFALHSASVFCVSLDPKTNTLAVTGGEDDKAFVWRLSDGELLFECAGHKDSVTCAGFSHDSTLVATGDMSGLLKVWQVDTKEEVWSFEAGDLEWMEWHPRAPVLLAGTADGNTWMWKVPNGDCKTFQGPNCPATCGRVLPDGKRAVVGYEDGTIRIWDLKQGSPIHVLKGTEGHQGPLTCVAANQDGSLILTGSVDCQAKLVSATTGKVVGVFRPETVASQPSLGEGEESESNSVESLGFCSVMPLAAVGYLDGTLAIYDLATQTLRHQCQHQSGIVQLLWEAGTAVVYTCSLDGIVRLWDARTGRLLTDYRGHTAEILDFALSKDASLVVTTSGDHKAKVFCVQRPDR
tritiated heparin binding, cpm above background per umole protein, with competition by equal amount of cold heparin (1:1 unlabeled heparin, 3 assays, S.D.): 2139 cpm/umole protein | tritiated heparin binding, cpm above background per umole protein, without competition (6 assays, S.D.): 9134+/-2699 cpm/umole protein | tritiated heparin binding, times more than background (BSA) (approx. 15 ug protein on Immobilon-P, 6 assays): 2.2+/-0.4 times
